US20200199241A1

Key:
[1] = target: human FcγRIIIa(F) (human) (UniProt P08637); experiment: SPR, captured antibody
FcγRIIb (human) [2] = target: FcγRIIb (human) (UniProt P31994); experiment: SPR, captured antibody
FcγRIIb (human) [3] = target: FcγRIIb (human) (UniProt P31994); experiment: SPR (Biacore)
[4] = target: human FcγRIIIa(F) (human) (UniProt P08637); experiment: SPR (Biacore)
human FcγRIIa(R) (human) = human FcγRIIa(R) (human) (UniProt P12318); experiment: SPR (Biacore)
human FcγRIIa(H) (human) = human FcγRIIa(H) (human) (UniProt P12318); experiment: SPR (Biacore)
Chain of human FcγRIIa(H) (human) (P12318 other isoform, or with tags, fused parts or gaps limits assumed): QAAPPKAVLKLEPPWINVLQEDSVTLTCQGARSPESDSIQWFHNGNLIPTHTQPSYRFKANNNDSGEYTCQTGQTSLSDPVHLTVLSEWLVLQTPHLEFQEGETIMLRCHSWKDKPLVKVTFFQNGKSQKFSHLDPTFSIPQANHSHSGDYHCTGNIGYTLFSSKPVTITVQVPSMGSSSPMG

Chain of FcγRIIb (human) (P31994 43-217 limits assumed): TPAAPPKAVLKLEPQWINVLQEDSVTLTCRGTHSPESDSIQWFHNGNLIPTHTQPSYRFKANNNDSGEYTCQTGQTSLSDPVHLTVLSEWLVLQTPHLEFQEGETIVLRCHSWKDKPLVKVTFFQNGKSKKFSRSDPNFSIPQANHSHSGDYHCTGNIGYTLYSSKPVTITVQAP
Chain of human FcγRIIIa(F) (human) (P08637 other isoform, or with tags, fused parts or gaps limits assumed): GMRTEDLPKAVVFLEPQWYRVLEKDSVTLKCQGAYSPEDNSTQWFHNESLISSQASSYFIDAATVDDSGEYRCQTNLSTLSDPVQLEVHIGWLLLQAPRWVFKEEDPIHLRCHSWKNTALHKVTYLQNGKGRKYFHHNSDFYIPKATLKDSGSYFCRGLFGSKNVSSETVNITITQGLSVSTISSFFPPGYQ
Chain of human FcγRIIa(R) (human) (P12318 other isoform, or with tags, fused parts or gaps limits assumed): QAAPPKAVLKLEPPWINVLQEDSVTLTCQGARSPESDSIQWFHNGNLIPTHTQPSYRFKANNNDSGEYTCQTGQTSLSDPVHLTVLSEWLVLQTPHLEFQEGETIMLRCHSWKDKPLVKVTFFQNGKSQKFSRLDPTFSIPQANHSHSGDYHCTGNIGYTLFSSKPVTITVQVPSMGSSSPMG

Substance	relative binding activity (% of GpH7-B3/GpL16-k0) [1]	other results
GpH7-B3 Q295W/GpL16-k0 (antibody)	10	–
GpH7-B3 Q295Y/GpL16-k0 (antibody)	49	–
GpH7-B3 S298G/GpL16-k0 (antibody)	59	–
GpH7-B3 S298K/GpL16-k0 (antibody)	25	–
GpH7-B3 S298P/GpL16-k0 (antibody)	0	–
GpH7-B3 S298R/GpL16-k0 (antibody)	20	–
GpH7-B3 S298W/GpL16-k0 (antibody)	11	relative binding activity (% of GpH7-B3/GpL16-k0) (FcγRIIb (human) [2]): 9
GpH7-B3 S298Y/GpL16-k0 (antibody)	71	–
GpH7-B3 S324K/GpL16-k0 (antibody)	74	–
GpH7-B3 S324P/GpL16-k0 (antibody)	35	–
GpH7-B3 Y296G/GpL16-k0 (antibody)	21	–
GpH7-B3 Y296K/GpL16-k0 (antibody)	21	–
GpH7-B3 Y296P/GpL16-k0 (antibody)	8	–
GpH7-B3 Y296R/GpL16-k0 (antibody)	38	–
GpH7-B3 Y300K/GpL16-k0 (antibody)	35	–
GpH7-B3 Y300P/GpL16-k0 (antibody)	-1	–
GpH7-B3 Y300R/GpL16-k0 (antibody)	12	–
GpH7-B3 variant E269H/GpL16-k0 (antibody)	–	relative binding activity (% of GpH7-B3/GpL16-k0) (FcγRIIb (human) [3]): 8
GpH7-B3 variant E269I/GpL16-k0 (antibody)	–	relative binding activity (% of GpH7-B3/GpL16-k0) (FcγRIIb (human) [3]): 9
GpH7-B3 variant E269W/GpL16-k0 (antibody)	–	relative binding activity (% of GpH7-B3/GpL16-k0) [4]: 9
GpH7-B3 variant G236K/GpL16-k0 (antibody)	–	relative binding activity (% of GpH7-B3/GpL16-k0) (human FcγRIIa(R) (human)): 9
GpH7-B3 variant G237A/GpL16-k0 (antibody)	–	relative binding activity (% of GpH7-B3/GpL16-k0) (human FcγRIIa(H) (human)): 9
GpH7-B3 variant G237P/GpL16-k0 (antibody)	–	relative binding activity (% of GpH7-B3/GpL16-k0) (human FcγRIIa(R) (human)): 8
GpH7-B3 variant L234G/GpL16-k0 (antibody)	–	relative binding activity (% of GpH7-B3/GpL16-k0) (human FcγRIIa(R) (human)): 9
GpH7-B3 variant S239R/GpL16-k0 (antibody)	–	relative binding activity (% of GpH7-B3/GpL16-k0) (human FcγRIIa(R) (human)): 8
GpH7-B3 variant S239W/GpL16-k0 (antibody)	–	relative binding activity (% of GpH7-B3/GpL16-k0) (human FcγRIIa(H) (human)): 9
GpH7-B3 variant V266F/GpL16-k0 (antibody)	–	relative binding activity (% of GpH7-B3/GpL16-k0) (human FcγRIIa(H) (human)): 8
